# Source: publication PMC4787775, “Molecular basis for the substrate specificity and catalytic mechanism of thymine-7-hydroxylase in fungi” (Nucleic Acids Research, 2015)
# Changes are numbered by the printed parent chain. Names may count otherwise.
# B1: NcT7H (thymine-7-hydroxylase) (Neurospora crassa OR74A; R286A) (protein)
# chain: MEKAAVNEDGLVIPLIDFSKFLEGDETLKLETAKAILHGFQTAGFIYLKNIPIQPDFREHVFNTSAKFFKLPKEKKLEVGWTTPEANRGYSAPGREKVTQLTDPAEIEKIRSAAPDIKESYEIGREDEPGHPNPWPAEQDDLVGFKSTMNNFFDQCKALHIEVMRAIAVGMGIDANYFDSFVDVGDNILRLLHYPAVKSEVFKINPGQVRAGEHTDYGSITLLFQDSRGGLQVKSPNGQFIDATPIENTVVVNAGDLLARWSNDTIKSTVHRVVEPPKQEDVHPPAYSIAYFCNPNHKSYIEAIPGTYAAESERKYEGINSGKYLVQRLAATY
# notes: full length (residues 1-333), C-terminal His6-tag, pET-28a, expressed in E. coli BL21(DE3); Ni-NTA and gel filtration, tag removal not mentioned
# B2: NcT7H (thymine-7-hydroxylase) (Neurospora crassa OR74A; R190K) (protein)
# chain: B1 chain with R190K, A286R
# notes: as for B1
# B3: NcT7H (thymine-7-hydroxylase) (Neurospora crassa OR74A; Y217F) (protein)
# chain: B1 chain with Y217F, A286R
# notes: as for B1
# B4: NcT7H (thymine-7-hydroxylase) (Neurospora crassa OR74A; N87A) (protein)
# chain: B1 chain with N87A, A286R
# notes: as for B1
# B5: NcT7H (thymine-7-hydroxylase) (Neurospora crassa OR74A; Y217A) (protein)
# chain: B1 chain with Y217A, A286R
# notes: as for B1
# B6: NcT7H (thymine-7-hydroxylase) (Neurospora crassa OR74A) (protein)
# chain: B1 chain with A286R
# notes: as for B1
# Assays:
# [1] = target: T1, NcT7H (thymine-7-hydroxylase) (Neurospora crassa, UniProt Q7RYZ9); assay: isothermal titration calorimetry; format: binding
# T1 construct: gene NCU06416; full length (residues 1-333), C-terminal His6-tag, pET-28a, expressed in E. coli BL21(DE3); Ni-NTA and gel filtration, tag removal not mentioned
# Source text: isothermal titration calorimetry on NcT7H (thymine-7-hydroxylase)
# purified protein [2] = substrate: O=c1[nH]cc(CO)c(=O)[nH]1; assay: purified protein; conditions: 1 mM α-KG, 0.2 mM (NH4)2Fe(SO4)2, 0.2 mM ascorbic acid, 100 mM Hepes pH 7.5, 25 °C
# purified protein [3] = substrate: Cc1c[nH]c(=O)[nH]c1=O; assay: purified protein; format: biochemical, Neurospora crassa; conditions: 1 mM α-KG, 0.2 mM (NH4)2Fe(SO4)2, 0.2 mM ascorbic acid, 100 mM Hepes pH 7.5, 25 °C
# purified protein [4] = substrate: O=Cc1c[nH]c(=O)[nH]c1=O; assay: purified protein; format: biochemical, Neurospora crassa; conditions: 1 mM α-KG, 0.2 mM (NH4)2Fe(SO4)2, 0.2 mM ascorbic acid, 100 mM Hepes pH 7.5, 25 °C
# T1 sequence (Q7RYZ9 entry or part of it): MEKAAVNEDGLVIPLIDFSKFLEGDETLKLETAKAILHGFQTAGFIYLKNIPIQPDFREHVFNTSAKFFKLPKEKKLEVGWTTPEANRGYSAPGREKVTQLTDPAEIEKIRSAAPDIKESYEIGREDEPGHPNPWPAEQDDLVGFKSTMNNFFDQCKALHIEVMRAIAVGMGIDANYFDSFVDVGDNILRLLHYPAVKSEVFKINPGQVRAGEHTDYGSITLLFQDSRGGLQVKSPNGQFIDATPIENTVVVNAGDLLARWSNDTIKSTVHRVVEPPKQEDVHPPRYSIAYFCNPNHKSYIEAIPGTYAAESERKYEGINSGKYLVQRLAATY
Kd [1] [µM],Molecule,Km (purified protein [2]) [µM],kcat (purified protein [2]) [s⁻¹],kcat/Km (purified protein [2]) [M⁻¹ s⁻¹],Km (purified protein [3]) [µM],kcat (purified protein [3]) [s⁻¹],kcat/Km (purified protein [3]) [M⁻¹ s⁻¹],Km (purified protein [4]) [µM],kcat (purified protein [4]) [s⁻¹],kcat/Km (purified protein [4]) [M⁻¹ s⁻¹]
108 ± 13,O=Cc1c[nH]c(=O)[nH]c1=O [5fU],–,–,–,–,–,–,–,–,–
34.4 ± 6.63,O=C(O)CCC(=O)C(=O)O [α-KG],–,–,–,–,–,–,–,–,–
32 ± 5.24,Cc1c[nH]c(=O)[nH]c1=O [T],–,–,–,–,–,–,–,–,–
30.5 ± 5.59,O=c1[nH]cc(CO)c(=O)[nH]1 [5hmU],–,–,–,–,–,–,–,–,–
5.35 ± 1.26,O=C(O)CNC(=O)C(=O)O [NOG],–,–,–,–,–,–,–,–,–
–,B1,950 ± 114,0.141,150,649 ± 74.1,0.405 ± 0.0215,617,–,–,–
–,B2,1016 ± 200,0.0353,33.3,542 ± 64.7,0.055 ± 0.003,100,–,–,–
–,B3,247 ± 35.2,0.553,2230,128 ± 18.5,0.542 ± 0.0228,4230,718 ± 213,0.237 ± 0.0352,333
–,B4,1065 ± 156,0.0962,83.3,638 ± 128,0.23 ± 0.022,367,–,–,–
–,B5,–,–,–,1500 ± 332,0.257 ± 0.0355,167,–,–,–
–,B6,178 ± 16.4,0.325,1830,141 ± 13.4,0.417 ± 0.0123,2950,253 ± 32.2,0.765 ± 0.0357,3020
